According to patent publication US20120263732A1, “CD40 ANTIBODY FORMULATION AND METHODS” (PFIZER INC., priority 2003, published 2012):
Like-named read-outs stand apart in the source and are kept apart here.

Legend:
[1] = system: Fc receptors (FcR) on human peripheral blood leukocytes; assay: 125I-antibody binding to Fc receptors on human leukocytes; conditions: 125I-labelled antibody; 4° C., sodium azide; 21.4.1: excess unlabeled human IgG2 competitor, n=5 donors
Experimental: The binding of an anti-CD40 antibody (21.4.1) to Fc receptors on human and cynomolgus leukocytes was examined.
The binding of 21.4.1 to Fc receptors (FcR) on human or cynomolgus peripheral blood leukocytes was determined by using ^125I-21.4.1 and a human IgG1 control mAb. Human leukocytes from normal donors or cynomolgus leukocytes were isolated from whole blood using plasma gel and washed thoroughly to allow dissociation of receptor-bound serum immunoglobulins. Centrifugation through a sucrose cushion was used to separate cell-bound and free antibodies. Studies were performed at 4° C. in the presence of sodium azide to prevent receptor internalization.
21.4.1 was tested for specific binding to FcR by using excess unlabeled human IgG2 isotype matched antibody as a competitor. ^125I-21.4.1 specific binding to FcR on human leukocytes (n=5 donors) was −1.0±8.5%, and specific binding to FcR on cynomolgus leukocytes (n=4) was 15±13%. […] The specific binding of the IgG1 control antibody to FcR on human and cynomolgus leukocytes accounted for 56% and 51% of the total bound radioactivity, respectively.

[2] = Serum pharmacokinetics after one injection in SCID-beige mice
[3] = cynomolgus monkey, in vivo
Experimental: The pharmacokinetic properties of an anti-CD40 antibody (21.4.1) were examined in cynomolgus monkeys following intravenous (IV) administration of a single dose of 1, 3, 5 or 10 mg/kg.

B cell lymphoma Daudi = assay: Mortality in systemic Daudi B cell lymphoma model; format: in vivo, human tumor in SCID-beige mice; conditions: Daudi IV; single IP injection; monitored for 58 days
Experimental: The ability of an anti-CD40 antibody according to the invention (21.4.1) to delay mortality in a CD40(+) systemic tumor model using a B cell lymphoma was assessed.
SCID-beige mice were injected IV with the B cell lymphoma Daudi (ATCC CCL-213). 21.4.1 was administered as a single injection (IP) at the time of tumor injection. Mortality was monitored for 58 days.

[4] = system: unstimulated human whole blood; assay: Whole-blood cytokine release assay
Experimental: An anti-CD40 antibody (21.4.1) was tested for its ability to induce the release of cytokines from unstimulated human whole blood using an in vitro whole blood assay which correlates with induction of antibody-mediated cytokine release in humans. 21.4.1 was tested at 1, 10 and 100 μg/mL, along with a murine anti-human CD3 IgG1 as a positive control that induces cytokine release through an Fc mediated pathway, and LPS as a second positive control that induces cytokines by stimulating macrophages. The donors used included individuals that responded to both the murine antibody and LPS (4 donors), as well as individuals who only responded to the LPS (3 donors). Heparinized whole blood was cultured with 21.4.1 for 5 hours and plasma was collected and analyzed for tumor necrosis factor alpha (TNF-α), interferon gamma (INF-γ) and interleukin-6 (IL-6) by ELISA (using commercially available kits). Cultures were also incubated for 48 hours and analyzed for interleukin-1 beta (IL-1β).

[5] = Multiple-dose IV pharmacokinetics; format: in vivo, cynomolgus monkeys
Experimental: In a multiple-dose study, 21.4.1 was administered intravenously to cynomolgus monkeys (2/sex/dose) at doses of 0.3, 1.0, and 10 mg/kg on Days 1, 3, 5, 7, and 9 for 5 total doses. Blood was collected on Days 1 and 9 before dosing and 0.5, 6, and 24 hours after dosing and before dosing and 0.5 hour after dosing on Day 5 to measure serum drug concentrations. Systemic exposure to 21.4.1, as assessed by mean Cmax and mean AUG(0-24), increased with increasing dose from 0.3 to 10 mg/kg on both Day 1 and Day 9 (Table 2). Similar exposures (mean Cmax and mean AUC) were observed on Days 1 and 9 in the 0.3 and 1 mg/kg dose groups. […] Gender-related differences in exposure were not observed.

[6] = mouse, in vivo
[7] = system: human breast tumor, BT 474; assay: BT 474 breast tumor growth with human T cells and DC in SCID-beige mice; format: in vivo
Text: SCID-beige mice were challenged with the human breast tumor, BT 474 (ATCC HTB-20), SC, together with human peripheral blood T cells and DC. Animals received a single dose of 21.4.1 (IP) at the time of tumor injection.

[8] = system: CD40(−) colon carcinoma, Lovo; assay: CD40(−) Lovo colon carcinoma growth in SCID-beige mice; format: in vivo, human tumor in SCID-beige mice; conditions: in the absence of immune cells
Experimental: The effects of a CD40 antibody (21.4.1) on the growth of CD40(−) tumors (e.g., erythroleukemia and colon carcinoma) were examined. In particular, K562 tumors were chosen to assess the efficacy of 21.4.1 against a CD40(−) low immunogenic (class I and II negative) tumor.
SCID-beige mice were injected SC with the CD40(−) erythroleukemic tumor, K562 (ATCC CCL-243) alone or in the presence of human peripheral blood T cells and DCs. Animals received a single IP injection of 21.4.1 either at the time of tumor injection or 5 days later using various dose levels.
The amount of 21.4.1 to cause a 50% inhibition of tumor growth was 0.005 mg/kg corresponding to a Cmax serum concentration of 0.05 μg/mL. […] The results were identical when 21.4.1 was administered on Day 0 or Day +5 relative to tumor challenge. The growth of these CD40(−) tumors was not inhibited by 21.4.1 in the absence of immune cells.

[9] = 0.3 mg/kg IV every other day, Day 1
[10] = 0.3 mg/kg IV every other day, Day 9
[11] = 1.0 mg/kg IV every other day, Day 1
[12] = 1.0 mg/kg IV every other day, Day 9
[13] = 10 mg/kg IV every other day, Day 1
[14] = 10 mg/kg IV every other day, Day 9

What does the source list for “21.4.1: human agonist anti-CD40 antibody; amino acid sequences SEQ ID NOs:5-8; hybridoma deposit PTA-3605”?
specific binding to FcR on human leukocytes [1]: −1.0±8.5%; Cmax serum concentration ([2]; corresponding to 0.001 mg/kg single IP): 10 ng/mL; Cmax serum concentration ([2]; corresponding to 0.005 mg/kg single IP): 50 ng/mL; Cmax serum concentration ([2]; corresponding to 0.02 mg/kg single IP): 200 ng/mL; duration of exposure of ≧0.1 μg/mL [3]: 4 days; volume of distribution at steady state, mean of different doses ([3]; iv): 0.0575 L/kg; AUC(0-∞) ([3]; iv, 1 mg/kg): 298 µg·h/mL; CL ([3]; iv, 1 mg/kg): 3.81 mL/h/kg; Cmax ([3]; iv, 1 mg/kg): ~20000 ng/mL; Vdss ([3]; iv, 1 mg/kg): 0.0757 L/kg; t1/2 ([3]; iv, 1 mg/kg): 18 h; AUC(0-∞) ([3]; iv, 3 mg/kg): 2460 µg·h/mL; CL ([3]; iv, 3 mg/kg): 1.28 mL/h/kg; Vdss ([3]; iv, 3 mg/kg): 0.0459 L/kg; t1/2 ([3]; iv, 3 mg/kg): 33.6 h; AUC(0-∞) ([3]; iv, 5 mg/kg): 4790 µg·h/mL; CL ([3]; iv, 5 mg/kg): 1.04 mL/h/kg; Vdss ([3]; iv, 5 mg/kg): 0.0488 L/kg; t1/2 ([3]; iv, 5 mg/kg): 33.6 h; AUC(0-∞) ([3]; iv, 10 mg/kg): 12500 µg·h/mL; CL ([3]; iv, 10 mg/kg): 0.798 mL/h/kg; Vdss ([3]; iv, 10 mg/kg): 0.0529 L/kg; apparent mean elimination half-life, range over doses ([3]; iv, 10 mg/kg): 18 to 48 h; systemic clearance, range over doses ([3]; iv, 10 mg/kg): 0.798 to 3.81 mL/h/kg; t1/2 ([3]; iv, 10 mg/kg): 48 h; volume of distribution at steady state, range over doses ([3]; iv, 10 mg/kg): 0.0459 to 0.0757 L/kg; mortality induced by systemically administered tumor cell line (B cell lymphoma Daudi): prevented mortality; IL-6 in plasma ([4]; 100 μg/mL, only one donor, 5 hours): 90 pg/mL; cytokines in plasma of human blood ([4]; 1 or 10 μg/mL 21.4.1, ELISA): not detected; elevation of INFγ or IL-1β ([4]; any of the samples, 1, 10 and 100 μg/mL): no elevation; induction of TNF-α or IL-6 on re-test ([4]; same donor re-tested subsequently): no detectable induction; AUC(0-24) [5, 9]: 47.7 ± 15.4 µg·h/mL; Cmax [5, 9]: 4670 ± 1710 ng/mL; Tmax [5, 9]: 1.9 ± 2.8 h; AUC(0-24) [5, 10]: 55.6 ± 47.1 µg·h/mL; Cmax [5, 10]: 7400 ± 2900 ng/mL; Tmax [5, 10]: 0.5 ± 0.0 h; AUC(0-24) [5, 11]: 387 ± 59 µg·h/mL; Cmax [5, 11]: 26700 ± 5100 ng/mL; Tmax [5, 11]: 0.5 ± 0.0 h; AUC(0-24) [5, 12]: 219 ± 151 µg·h/mL; Cmax [5, 12]: 12300 ± 9100 ng/mL; Tmax [5, 12]: 1.9 ± 2.8 h; AUC(0-24) [5, 13]: 4130 ± 600 µg·h/mL; Cmax [5, 13]: 226000 ± 29000 ng/mL; Tmax [5, 13]: 1.9 ± 2.8 h; AUC(0-24) [5, 14]: 11400 ± 2100 µg·h/mL; Cmax [5, 14]: 577000 ± 163000 ng/mL; Tmax [5, 14]: 3.3 ± 3.2 h; increase of mean AUG(0-24) from Day 1 to Day 9 ([5]; 10 mg/kg dose group): 2.8 fold; increase of mean Cmax from Day 1 to Day 9 ([5]; 10 mg/kg dose group): 2.6 fold; T1/2 [6]: > 720 h; amount necessary to cause a 50% reduction in tumor growth ([7]; BT 474 with human T cells and DC, single IP dose at tumor injection, Day 53): 0.005 mg/kg; growth of BT 474 cells ([7]; in the presence of immune cells, single injection): prevented the growth; growth of Lovo tumor [8]: not inhibited
